The RNAGym collection of RNA variant scans (doi:10.1101/gr.219683.116)

B1: mRNA-splicing (parent)
chain: AGUUGCUGCUGGGAGCUCCAGCACAGUGAAAUGGACAGAAGGGCAGAGCAA

Variants of: B1
Test: exon inclusion enrichment index; higher = more inclusion; WT1 exon 5 minigene, HEK293

Row | Variant | exon inclusion enrichment index
1 | AGUUACCACCGGGAGCUCCAGCACAGUGAAAUGGUAAGAAGGGCAGAGCAA [G5A U7C G8A U10C A35U C36A] | 0.00832
2 | AGUUACCACCGGGAGCUCCAGCACAGUGAAAUGGUGAGAAGGGCAGAGCAA [G5A U7C G8A U10C A35U C36G] | 0.19
3 | AGUUACCACCGGGAGCUCCAGCACAGUGAAAUGGUUAGAAGGGCAGAGCAA [G5A U7C G8A U10C A35U C36U] | 0.0422
4 | AGUUACCACCGGGAGCUCCAGCACAGUGAAAUGGACCGAAGGGCAGAGCAA [G5A U7C G8A U10C A37C] | 3.08
5 | AGUUACCACCGGGAGCUCCAGCACAGUGAAAUGGACCAAAGGGCAGAGCAA [G5A U7C G8A U10C A37C G38A] | 2.05
6 | AGUUACCACCGGGAGCUCCAGCACAGUGAAAUGGACCCAAGGGCAGAGCAA [G5A U7C G8A U10C A37C G38C] | 2.35
7 | AGUUACCACCGGGAGCUCCAGCACAGUGAAAUGGACCUAAGGGCAGAGCAA [G5A U7C G8A U10C A37C G38U] | 1.6
8 | AGUUACCACCGGGAGCUCCAGCACAGUGAAAUGGACGGAAGGGCAGAGCAA [G5A U7C G8A U10C A37G] | 3.3
9 | AGUUACCACCGGGAGCUCCAGCACAGUGAAAUGGACGAAAGGGCAGAGCAA [G5A U7C G8A U10C A37G G38A] | 2.19
10 | AGUUACCACCGGGAGCUCCAGCACAGUGAAAUGGACGCAAGGGCAGAGCAA [G5A U7C G8A U10C A37G G38C] | 2.62
11 | AGUUACCACCGGGAGCUCCAGCACAGUGAAAUGGACGUAAGGGCAGAGCAA [G5A U7C G8A U10C A37G G38U] | 0.991
12 | AGUUACCACCGGGAGCUCCAGCACAGUGAAAUGGACUGAAGGGCAGAGCAA [G5A U7C G8A U10C A37U] | 1.97
13 | AGUUACCACCGGGAGCUCCAGCACAGUGAAAUGGACUAAAGGGCAGAGCAA [G5A U7C G8A U10C A37U G38A] | 0.876
14 | AGUUACCACCGGGAGCUCCAGCACAGUGAAAUGGACUCAAGGGCAGAGCAA [G5A U7C G8A U10C A37U G38C] | 1.52
15 | AGUUACCACCGGGAGCUCCAGCACAGUGAAAUGGACUUAAGGGCAGAGCAA [G5A U7C G8A U10C A37U G38U] | 0.601
16 | AGUUACCACCGGGAGCUCCAGCACAGUGAAAUGGACAGCAGGGCAGAGCAA [G5A U7C G8A U10C A39C] | 0.541
17 | AGUUACCACCGGGAGCUCCAGCACAGUGAAAUGGACAGCCGGGCAGAGCAA [G5A U7C G8A U10C A39C A40C] | 3.03
18 | AGUUACCACCGGGAGCUCCAGCACAGUGAAAUGGACAGCGGGGCAGAGCAA [G5A U7C G8A U10C A39C A40G] | 2.18
19 | AGUUACCACCGGGAGCUCCAGCACAGUGAAAUGGACAGCUGGGCAGAGCAA [G5A U7C G8A U10C A39C A40U] | 1.28
20 | AGUUACCACCGGGAGCUCCAGCACAGUGAAAUGGACAGGAGGGCAGAGCAA [G5A U7C G8A U10C A39G] | 1.33
21 | AGUUACCACCGGGAGCUCCAGCACAGUGAAAUGGACAGGCGGGCAGAGCAA [G5A U7C G8A U10C A39G A40C] | 2.53
22 | AGUUACCACCGGGAGCUCCAGCACAGUGAAAUGGACAGGGGGGCAGAGCAA [G5A U7C G8A U10C A39G A40G] | 0.26
23 | AGUUACCACCGGGAGCUCCAGCACAGUGAAAUGGACAGGUGGGCAGAGCAA [G5A U7C G8A U10C A39G A40U] | 0.283
24 | AGUUACCACCGGGAGCUCCAGCACAGUGAAAUGGACAGUAGGGCAGAGCAA [G5A U7C G8A U10C A39U] | 0.113
25 | AGUUACCACCGGGAGCUCCAGCACAGUGAAAUGGACAGUCGGGCAGAGCAA [G5A U7C G8A U10C A39U A40C] | 2.41
26 | AGUUACCACCGGGAGCUCCAGCACAGUGAAAUGGACAGUGGGGCAGAGCAA [G5A U7C G8A U10C A39U A40G] | 0.575

Row | Variant | exon inclusion enrichment index
27 | AGUUACCACCGGGAGCUCCAGCACAGUGAAAUGGACAGUUGGGCAGAGCAA [G5A U7C G8A U10C A39U A40U] | 1.02
28 | AGUUACCACCGGGAGCUCCAGCACAGUGAAAUGGACAGACGGGCAGAGCAA [G5A U7C G8A U10C A40C] | 2.82
29 | AGUUACCACCGGGAGCUCCAGCACAGUGAAAUGGACAGACAGGCAGAGCAA [G5A U7C G8A U10C A40C G41A] | 0.979
30 | AGUUACCACCGGGAGCUCCAGCACAGUGAAAUGGACAGACCGGCAGAGCAA [G5A U7C G8A U10C A40C G41C] | 3.47
31 | AGUUACCACCGGGAGCUCCAGCACAGUGAAAUGGACAGACUGGCAGAGCAA [G5A U7C G8A U10C A40C G41U] | 1.28
32 | AGUUACCACCGGGAGCUCCAGCACAGUGAAAUGGACAGAGGGGCAGAGCAA [G5A U7C G8A U10C A40G] | 1.93
33 | AGUUACCACCGGGAGCUCCAGCACAGUGAAAUGGACAGAGAGGCAGAGCAA [G5A U7C G8A U10C A40G G41A] | 1.12
34 | AGUUACCACCGGGAGCUCCAGCACAGUGAAAUGGACAGAGCGGCAGAGCAA [G5A U7C G8A U10C A40G G41C] | 3.76
35 | AGUUACCACCGGGAGCUCCAGCACAGUGAAAUGGACAGAGUGGCAGAGCAA [G5A U7C G8A U10C A40G G41U] | 1.79
36 | AGUUACCACCGGGAGCUCCAGCACAGUGAAAUGGACAGAUGGGCAGAGCAA [G5A U7C G8A U10C A40U] | 1.97
37 | AGUUACCACCGGGAGCUCCAGCACAGUGAAAUGGACAGAUAGGCAGAGCAA [G5A U7C G8A U10C A40U G41A] | 0.108
38 | AGUUACCACCGGGAGCUCCAGCACAGUGAAAUGGACAGAUCGGCAGAGCAA [G5A U7C G8A U10C A40U G41C] | 3.14
39 | AGUUACCACCGGGAGCUCCAGCACAGUGAAAUGGACAGAUUGGCAGAGCAA [G5A U7C G8A U10C A40U G41U] | 1.26
40 | AGUUACCACCGGGAGCUCCAGCACAGUGAAAUGGACAGAAGGGCCGAGCAA [G5A U7C G8A U10C A45C] | 2.28
41 | AGUUACCACCGGGAGCUCCAGCACAGUGAAAUGGACAGAAGGGCCAAGCAA [G5A U7C G8A U10C A45C G46A] | 1.42
42 | AGUUACCACCGGGAGCUCCAGCACAGUGAAAUGGACAGAAGGGCCCAGCAA [G5A U7C G8A U10C A45C G46C] | 1.61
43 | AGUUACCACCGGGAGCUCCAGCACAGUGAAAUGGACAGAAGGGCCUAGCAA [G5A U7C G8A U10C A45C G46U] | 1.12
44 | AGUUACCACCGGGAGCUCCAGCACAGUGAAAUGGACAGAAGGGCGGAGCAA [G5A U7C G8A U10C A45G] | 3.76
45 | AGUUACCACCGGGAGCUCCAGCACAGUGAAAUGGACAGAAGGGCGAAGCAA [G5A U7C G8A U10C A45G G46A] | 4.51
46 | AGUUACCACCGGGAGCUCCAGCACAGUGAAAUGGACAGAAGGGCGCAGCAA [G5A U7C G8A U10C A45G G46C] | 3.06
47 | AGUUACCACCGGGAGCUCCAGCACAGUGAAAUGGACAGAAGGGCGUAGCAA [G5A U7C G8A U10C A45G G46U] | 2.26
48 | AGUUACCACCGGGAGCUCCAGCACAGUGAAAUGGACAGAAGGGCUGAGCAA [G5A U7C G8A U10C A45U] | 2.8
49 | AGUUACCACCGGGAGCUCCAGCACAGUGAAAUGGACAGAAGGGCUAAGCAA [G5A U7C G8A U10C A45U G46A] | 1.75
50 | AGUUACCACCGGGAGCUCCAGCACAGUGAAAUGGACAGAAGGGCUCAGCAA [G5A U7C G8A U10C A45U G46C] | 1.55
51 | AGUUACCACCGGGAGCUCCAGCACAGUGAAAUGGACAGAAGGGCUUAGCAA [G5A U7C G8A U10C A45U G46U] | 0.84
